Measured values reported in paper PMC9482650, “Quantitative fragmentomics allow affinity mapping of interactomes” (Nature Communications, 2022).

B1: HPV82-E6, Q9IR59 (peptide)
chain: PPRQRSETQV
B2: NET1, Q7Z628 (peptide)
chain: SGGKRKETLV
B3: FZD7, O75084 (peptide)
chain: SHSSKGETAV

Target: T1, APBA3_2, O96018
T1 sequence (O96018 480-570, limits assumed, looked up): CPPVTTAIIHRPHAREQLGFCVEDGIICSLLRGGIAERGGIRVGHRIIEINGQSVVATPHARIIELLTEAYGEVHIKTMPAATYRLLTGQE
Assay: holdup assay
Design: key: below the threshold = too weak to quantify, mostly under pKd 3.1 to 4
Settings: plain residues with an end cap or a label only (N-terminal biotin on a linker: ttds)

Row | Binder | pKd
1 | B1 | below the threshold
2 | B2 | below the threshold
3 | B3 | below the threshold

Target: CARD14, Q9BXL6
Assay: holdup assay
Design: key: below the threshold = too weak to quantify, mostly under pKd 3.1 to 4
Settings: plain residues with an end cap or a label only (N-terminal biotin on a linker: ttds)

Chain of CARD14, Q9BXL6 (Q9BXL6 558-663): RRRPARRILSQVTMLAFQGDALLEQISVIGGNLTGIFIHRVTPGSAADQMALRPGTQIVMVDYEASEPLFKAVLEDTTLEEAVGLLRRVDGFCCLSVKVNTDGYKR

Row | Binder | pKd
4 | B1 | below the threshold
5 | B3 | below the threshold

Target: DLG5_2, Q8TDM6
Assay: holdup assay
Design: key: below the threshold = too weak to quantify, mostly under pKd 3.1 to 4
Settings: plain residues with an end cap or a label only (N-terminal biotin on a linker: ttds)

Chain of DLG5_2, Q8TDM6 (Q8TDM6 714-800): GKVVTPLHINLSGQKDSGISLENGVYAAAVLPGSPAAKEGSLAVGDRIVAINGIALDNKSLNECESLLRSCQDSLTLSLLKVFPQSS

Row | Binder | pKd
6 | B1 | below the threshold
7 | B2 | 4.58
8 | B3 | below the threshold

Target: T2, GIPC1, O14908
T2 sequence (O14908 128-223, limits assumed, looked up): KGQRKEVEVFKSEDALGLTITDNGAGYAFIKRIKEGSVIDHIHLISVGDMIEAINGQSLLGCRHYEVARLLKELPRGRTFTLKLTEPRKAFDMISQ
Assay: holdup assay
Design: key: below the threshold = too weak to quantify, mostly under pKd 3.1 to 4
Settings: plain residues with an end cap or a label only (N-terminal biotin on a linker: ttds)

Row | Binder | pKd
9 | B1 | 4.27
10 | B2 | 4.28
11 | B3 | 4.44

Target: LIMK1, P53667
Assay: holdup assay
Design: key: below the threshold = too weak to quantify, mostly under pKd 3.1 to 4
Settings: plain residues with an end cap or a label only (N-terminal biotin on a linker: ttds)

Chain of LIMK1, P53667 (P53667 155-268): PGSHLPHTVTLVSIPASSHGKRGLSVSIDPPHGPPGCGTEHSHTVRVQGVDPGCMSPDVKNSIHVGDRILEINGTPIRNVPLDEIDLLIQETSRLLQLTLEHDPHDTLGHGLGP

Row | Binder | pKd
12 | B3 | below the threshold

Target: MAGI1_5, Q96QZ7
Assay: holdup assay
Design: key: below the threshold = too weak to quantify, mostly under pKd 3.1 to 4
Settings: plain residues with an end cap or a label only (N-terminal biotin on a linker: ttds)

Chain of MAGI1_5, Q96QZ7 (Q96QZ7 986-1098): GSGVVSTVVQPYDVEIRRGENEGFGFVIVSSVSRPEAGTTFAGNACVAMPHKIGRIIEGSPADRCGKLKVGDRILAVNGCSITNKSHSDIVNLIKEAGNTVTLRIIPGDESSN

Row | Binder | pKd
13 | B1 | 4.37
14 | B2 | 4.72
15 | B3 | below the threshold

Target: T3, MAGI2_1, Q86UL8
T3 sequence (Q86UL8 12-111, limits assumed, looked up): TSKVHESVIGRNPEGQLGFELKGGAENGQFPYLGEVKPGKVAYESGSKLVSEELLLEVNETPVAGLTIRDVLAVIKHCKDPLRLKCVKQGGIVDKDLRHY
Assay: holdup assay
Design: key: below the threshold = too weak to quantify, mostly under pKd 3.1 to 4
Settings: plain residues with an end cap or a label only (N-terminal biotin on a linker: ttds)

Row | Binder | pKd
16 | B1 | below the threshold
17 | B2 | below the threshold
18 | B3 | 4.39

Target: MAGI3_5, Q5TCQ9
Assay: holdup assay
Design: key: below the threshold = too weak to quantify, mostly under pKd 3.1 to 4
Settings: plain residues with an end cap or a label only (N-terminal biotin on a linker: ttds)

Chain of MAGI3_5, Q5TCQ9 (Q5TCQ9 847-941): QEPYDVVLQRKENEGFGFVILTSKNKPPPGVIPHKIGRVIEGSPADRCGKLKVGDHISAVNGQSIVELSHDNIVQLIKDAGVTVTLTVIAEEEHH

Row | Binder | pKd
19 | B1 | below the threshold
20 | B2 | 3.72
21 | B3 | below the threshold

Target: MAGI3_6, Q5TCQ9
Assay: holdup assay
Design: key: below the threshold = too weak to quantify, mostly under pKd 3.1 to 4
Settings: plain residues with an end cap or a label only (N-terminal biotin on a linker: ttds)

Chain of MAGI3_6, Q5TCQ9 (Q5TCQ9 1014-1103): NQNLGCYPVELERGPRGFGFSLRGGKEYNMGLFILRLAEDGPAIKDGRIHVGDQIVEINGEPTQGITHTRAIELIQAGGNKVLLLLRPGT

Row | Binder | pKd
22 | B1 | below the threshold
23 | B2 | below the threshold
24 | B3 | 4.71

Target: T4, MPDZ_11, O75970
T4 sequence (O75970 1720-1817, limits assumed, looked up): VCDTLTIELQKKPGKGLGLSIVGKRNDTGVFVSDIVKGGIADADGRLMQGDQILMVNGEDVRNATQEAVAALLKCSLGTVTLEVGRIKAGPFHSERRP
Assay: holdup assay
Design: key: below the threshold = too weak to quantify, mostly under pKd 3.1 to 4
Settings: plain residues with an end cap or a label only (N-terminal biotin on a linker: ttds)

Row | Binder | pKd
25 | B1 | below the threshold
26 | B2 | 3.72
27 | B3 | below the threshold

Target: T5, NHERF3_2, Q5T2W1
T5 sequence (Q5T2W1 129-225, limits assumed, looked up): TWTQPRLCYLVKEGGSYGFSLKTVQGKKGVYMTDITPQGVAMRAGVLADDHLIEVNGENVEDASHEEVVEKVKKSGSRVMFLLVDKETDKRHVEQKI
Assay: holdup assay
Design: key: below the threshold = too weak to quantify, mostly under pKd 3.1 to 4
Settings: plain residues with an end cap or a label only (N-terminal biotin on a linker: ttds)

Row | Binder | pKd
28 | B1 | below the threshold
29 | B2 | below the threshold
30 | B3 | below the threshold

Target: O00233
Assay: holdup assay
Design: key: below the threshold = too weak to quantify, mostly under pKd 3.1 to 4
Settings: plain residues with an end cap or a label only (N-terminal biotin on a linker: ttds)

Row | Binder | pKd
31 | B1 | below the threshold
32 | B3 | below the threshold

Target: PARD3_1, Q8TEW0
Assay: holdup assay
Design: key: below the threshold = too weak to quantify, mostly under pKd 3.1 to 4
Settings: plain residues with an end cap or a label only (N-terminal biotin on a linker: ttds)

Chain of PARD3_1, Q8TEW0 (Q8TEW0 264-372): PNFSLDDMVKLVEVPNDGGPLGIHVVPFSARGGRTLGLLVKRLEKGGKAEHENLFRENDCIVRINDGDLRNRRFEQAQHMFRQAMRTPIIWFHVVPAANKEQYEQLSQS

Row | Binder | pKd
33 | B1 | below the threshold
34 | B2 | below the threshold
35 | B3 | below the threshold

Target: T6, PARD6G, Q9BYG4
T6 sequence (Q9BYG4 153-261, limits assumed, looked up): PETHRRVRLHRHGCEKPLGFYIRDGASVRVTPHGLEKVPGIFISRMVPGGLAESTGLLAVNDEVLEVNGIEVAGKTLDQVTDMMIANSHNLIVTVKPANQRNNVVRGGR
Assay: holdup assay
Design: key: below the threshold = too weak to quantify, mostly under pKd 3.1 to 4
Settings: plain residues with an end cap or a label only (N-terminal biotin on a linker: ttds)

Row | Binder | pKd
36 | B1 | below the threshold
37 | B2 | below the threshold
38 | B3 | below the threshold

Target: T7, PDZD2_3, O15018
T7 sequence (O15018 581-682, limits assumed, looked up): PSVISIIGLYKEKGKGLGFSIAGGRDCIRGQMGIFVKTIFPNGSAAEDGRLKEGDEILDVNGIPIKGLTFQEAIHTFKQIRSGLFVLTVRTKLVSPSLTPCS
Assay: holdup assay
Design: key: below the threshold = too weak to quantify, mostly under pKd 3.1 to 4
Settings: plain residues with an end cap or a label only (N-terminal biotin on a linker: ttds)

Row | Binder | pKd
39 | B1 | below the threshold
40 | B2 | below the threshold
41 | B3 | below the threshold

Target: T8, PDZD2_6, O15018
T8 sequence (O15018 2745-2839, limits assumed, looked up): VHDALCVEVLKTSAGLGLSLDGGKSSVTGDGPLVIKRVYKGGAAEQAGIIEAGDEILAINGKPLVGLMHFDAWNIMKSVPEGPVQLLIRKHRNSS
Assay: holdup assay
Design: key: below the threshold = too weak to quantify, mostly under pKd 3.1 to 4
Settings: plain residues with an end cap or a label only (N-terminal biotin on a linker: ttds)

Row | Binder | pKd
42 | B1 | below the threshold
43 | B2 | below the threshold
44 | B3 | below the threshold

Target: T9, PDZD7_1, Q9H5P4
T9 sequence (Q9H5P4 81-178, limits assumed, looked up): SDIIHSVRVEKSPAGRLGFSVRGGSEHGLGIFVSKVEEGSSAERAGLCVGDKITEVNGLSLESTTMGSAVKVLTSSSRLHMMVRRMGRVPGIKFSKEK
Assay: holdup assay
Design: key: below the threshold = too weak to quantify, mostly under pKd 3.1 to 4
Settings: plain residues with an end cap or a label only (N-terminal biotin on a linker: ttds)

Row | Binder | pKd
45 | B1 | below the threshold
46 | B2 | below the threshold
47 | B3 | below the threshold

Target: PDZD9, Q8IXQ8
Assay: holdup assay
Design: key: below the threshold = too weak to quantify, mostly under pKd 3.1 to 4
Settings: plain residues with an end cap or a label only (N-terminal biotin on a linker: ttds)

Chain of PDZD9, Q8IXQ8 (Q8IXQ8 23-120): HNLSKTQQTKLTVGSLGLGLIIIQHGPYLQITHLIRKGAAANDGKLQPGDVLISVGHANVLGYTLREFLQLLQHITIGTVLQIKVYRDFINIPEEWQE

Row | Binder | pKd
48 | B1 | below the threshold
49 | B2 | below the threshold
50 | B3 | below the threshold

Target: T10, PREX2_2, Q70Z35
T10 sequence (Q70Z35 672-764, limits assumed, looked up): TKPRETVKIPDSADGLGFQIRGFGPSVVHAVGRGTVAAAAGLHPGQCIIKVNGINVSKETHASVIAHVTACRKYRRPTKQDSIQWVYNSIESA
Assay: holdup assay
Design: key: below the threshold = too weak to quantify, mostly under pKd 3.1 to 4
Settings: plain residues with an end cap or a label only (N-terminal biotin on a linker: ttds)

Row | Binder | pKd
51 | B1 | below the threshold
52 | B2 | 3.79
53 | B3 | 4.3

Target: Q8TB45
Assay: holdup assay
Design: key: below the threshold = too weak to quantify, mostly under pKd 3.1 to 4
Settings: plain residues with an end cap or a label only (N-terminal biotin on a linker: ttds)

Row | Binder | pKd
54 | B1 | below the threshold
55 | B3 | below the threshold

Target: Q96FS4
Assay: holdup assay
Design: key: below the threshold = too weak to quantify, mostly under pKd 3.1 to 4
Settings: plain residues with an end cap or a label only (N-terminal biotin on a linker: ttds)

Row | Binder | pKd
56 | B1 | below the threshold
57 | B3 | below the threshold

Target: Q96JY6
Assay: holdup assay
Design: key: below the threshold = too weak to quantify, mostly under pKd 3.1 to 4
Settings: plain residues with an end cap or a label only (N-terminal biotin on a linker: ttds)

Row | Binder | pKd
58 | B1 | below the threshold
59 | B3 | below the threshold

Target: Q9NPB6
Assay: holdup assay
Design: key: below the threshold = too weak to quantify, mostly under pKd 3.1 to 4
Settings: plain residues with an end cap or a label only (N-terminal biotin on a linker: ttds)

Row | Binder | pKd
60 | B1 | below the threshold
61 | B3 | below the threshold

Target: SCRIB_4, Q14160
Assay: holdup assay
Design: key: below the threshold = too weak to quantify, mostly under pKd 3.1 to 4
Settings: plain residues with an end cap or a label only (N-terminal biotin on a linker: ttds)

Chain of SCRIB_4, Q14160 (Q14160 1095-1204): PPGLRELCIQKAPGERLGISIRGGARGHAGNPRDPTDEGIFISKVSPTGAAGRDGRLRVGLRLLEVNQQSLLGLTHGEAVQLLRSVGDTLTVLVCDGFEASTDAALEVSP

Row | Binder | pKd
62 | B1 | below the threshold
63 | B2 | below the threshold
64 | B3 | below the threshold

Target: T11, SHROOM3, Q8TF72
T11 sequence (Q8TF72 20-120, limits assumed, looked up): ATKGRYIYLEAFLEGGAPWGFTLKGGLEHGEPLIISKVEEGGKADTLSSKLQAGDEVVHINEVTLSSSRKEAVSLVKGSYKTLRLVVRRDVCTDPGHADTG
Assay: holdup assay
Design: key: below the threshold = too weak to quantify, mostly under pKd 3.1 to 4
Settings: plain residues with an end cap or a label only (N-terminal biotin on a linker: ttds)

Row | Binder | pKd
65 | B1 | below the threshold
66 | B2 | below the threshold
67 | B3 | below the threshold

Target: T12, USH1C_2, Q9Y6N9
T12 sequence (Q9Y6N9 206-303, limits assumed, looked up): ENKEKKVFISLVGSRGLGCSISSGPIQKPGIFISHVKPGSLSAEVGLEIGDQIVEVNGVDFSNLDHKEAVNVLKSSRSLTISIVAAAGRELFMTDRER
Assay: holdup assay
Design: key: below the threshold = too weak to quantify, mostly under pKd 3.1 to 4
Settings: plain residues with an end cap or a label only (N-terminal biotin on a linker: ttds)

Row | Binder | pKd
68 | B1 | below the threshold
69 | B3 | below the threshold
